From publication PMC4108407, “6-Hydroxy-3-Succinoylpyridine Hydroxylase Catalyzes a Central Step of Nicotine Degradation in Agrobacterium tumefaciens S33” (PLoS ONE, 2014)

Assays:
Test in all cases: purified protein
[1] = test system: NC(=O)C1=CN([C@@H]2O[C@H](COP(=O)(O)OP(=O)(O)OC[C@H]3O[C@@H](n4cnc5c(N)ncnc54)[C@H](O)[C@@H]3O)[C@@H](O)[C@H]2O)C=CC1; settings: 50 mM phosphate buffer pH 8.0, 30°C, co-substrate HSP, FAD
[2] = test system: NC(=O)C1=CN([C@@H]2O[C@H](COP(=O)(O)OP(=O)(O)OC[C@H]3O[C@@H](n4cnc5c(N)ncnc54)[C@H](OP(=O)(O)O)[C@@H]3O)[C@@H](O)[C@H]2O)C=CC1; settings: 50 mM phosphate buffer pH 8.0, 30°C, co-substrate HSP, FAD
O=C(O)CCC(=O)c1ccc(O)nc1 = settings: 50 mM phosphate buffer pH 8.0, 30°C, co-substrate NADH, FAD

Substance: HSP hydroxylase (6-hydroxy-3-succinoylpyridine hydroxylase) (Agrobacterium tumefaciens)
- Km [1]: 100 ± 10 µM
- Km [2]: 350 ± 40 µM
- Km (O=C(O)CCC(=O)c1ccc(O)nc1): 150 ± 20 µM
